Values quoted from earlier work, collected in patent US20210106646A1, “Combination Of A Novel Topical Gel And Oral Supplements For Healing Diabetic Foot And Other Wounds” (Smart Products & Services Inc. (dba Aloevive), priority 2019, published 2021).

Conditions: topical use, per product website

Regranex Gel: Regranex (becaplermin) Gel is a recombinant human platelet-derived growth factor used to treat lower extremity diabetic ulcers
rare but serious side effects: allergic reactions such as rash, itching, swelling (especially of the face/tongue/throat), dizziness, and trouble breathing
